Measurements published in PMC9130538, “Amino acids in transmembrane helix 1 confer major functional differences between human and mouse orthologs of the polyspecific membrane transporter OCT1” (The Journal of Biological Chemistry, 2022).

Tests used:
[1] = target: T1, human OCT1 Phe32Leu (Homo sapiens, UniProt O15245, F32L); test: Uptake by HEK293 cells overexpressing Phe32Leu human OCT1; assay type: cell-based; settings: 200 μM trospium, 2 min, transient transfection, versus human wildtype
T1 construct: expressed in transfected cells
Protocol: (§1) Human–mouse chimeric OCT1 constructs were generated using the overlap extension method ([50]) and have been characterized before ([34]). […] All constructs were validated by capillary sequencing of the complete open reading frame of OCT1 before transfection into HEK293 cells.
(§2) For transient transfection of OCT1 constructs into HEK293 cells for uptake experiments, 5 × 10^5 T-REx-293 cells (Life Technologies) were seeded per well in 12-well plates precoated with poly-D-lysine. […] At 48 h later, transfection efficacy was assessed microscopically by visualizing the GFP signal of the cotransfected GFP vector, and the cells were subsequently used for uptake experiments. […]
(§3) Cellular uptake experiments were performed at 37 °C and pH 7.4 using HBSS supplemented with 10 mM Hepes (in the following referred to as HBSS+). […] Cells were washed twice with 2 ml ice-cold HBSS+ and lysed with 80% acetonitrile supplemented with internal standard, 0.1 N NaOH/0.1% SDS, or radioimmunoprecipitation buffer for LC–MS/MS, liquid scintillation counting, or fluorescence spectroscopy detection, respectively. Intracellular substrate concentrations were measured as described in the following and were then normalized to the amount of total protein in the samples as measured using the bicinchoninic acid assay ([51]). […]

[2] = human, estimated based on clinical data, ref [39]; cited from earlier work
[3] = target: T2, human OCT1 Cys36Tyr (Homo sapiens, UniProt O15245, C36Y); test: Uptake by HEK293 cells overexpressing Cys36Tyr human OCT1; assay type: cell-based; settings: 200 μM trospium, 2 min, transient transfection
T2 construct: expressed in transfected cells
Protocol: as §1, §2, §3

[4] = target: T3, human OCT1 with mouse TMH1 (human–mouse chimeric OCT1) (Homo sapiens, UniProt O15245, A31S/C36Y/F32L/I24L/L28I); test: Uptake by HEK293 cells transiently overexpressing chimeric human OCT1 carrying mouse TMH1; assay type: cell-based; settings: 200 μM trospium, 2 min, transient transfection
T3 construct: expressed in transfected cells
Protocol: as §1, §2, §3

[5] = target: T4, mouse Oct1 Leu32Phe (Mus musculus, UniProt O08966, L32F); test: Uptake by HEK293 cells overexpressing Leu32Phe mouse Oct1; assay type: cell-based; settings: 200 μM trospium, 2 min, transient transfection
T4 construct: expressed in transfected cells
Protocol: as §1, §2, §3

[6] = target: T5, human OCT1 (Homo sapiens, UniProt O15245); test: Cellular uptake by HEK293 cells overexpressing human OCT1 (wildtype)
T5 sequence (O15245 1-554): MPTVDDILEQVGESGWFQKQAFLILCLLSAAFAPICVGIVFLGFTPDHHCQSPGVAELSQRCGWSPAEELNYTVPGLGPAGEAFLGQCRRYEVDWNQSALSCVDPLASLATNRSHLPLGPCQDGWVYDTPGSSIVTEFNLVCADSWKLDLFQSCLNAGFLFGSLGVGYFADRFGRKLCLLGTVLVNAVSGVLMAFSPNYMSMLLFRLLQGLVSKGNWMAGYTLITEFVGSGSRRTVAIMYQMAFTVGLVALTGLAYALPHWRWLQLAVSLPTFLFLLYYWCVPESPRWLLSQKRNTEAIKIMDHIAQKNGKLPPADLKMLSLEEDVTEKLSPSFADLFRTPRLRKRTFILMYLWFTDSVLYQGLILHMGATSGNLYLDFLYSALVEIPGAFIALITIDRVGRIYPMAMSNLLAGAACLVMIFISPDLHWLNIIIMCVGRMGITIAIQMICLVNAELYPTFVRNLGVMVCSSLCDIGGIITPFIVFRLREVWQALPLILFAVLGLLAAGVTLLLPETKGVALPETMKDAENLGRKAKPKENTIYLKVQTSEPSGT
Protocol: Generation and characterization of these cell lines has been described in detail before ([34], [48], [49]). Cells were cultured in Dulbecco’s Modified Eagle’s Medium supplemented with 10% fetal bovine serum, 100 U/ml penicillin, and 100 μg/ml streptomycin at 37 °C and 5% CO2 and were passaged twice a week.
At 48 h prior to the experiment, 6 × 10^5 cells were seeded per well in 12-well plates. When using transiently transfected cells, 5 × 10^5 T-REx-293 cells (Life Technologies) were seeded per well in 12-well plates 72 h prior to the experiment, and they were transfected 24 h later as described previously. Twelve-well plates were precoated with poly-D-lysine.
Cellular uptake experiments were performed at 37 °C and pH 7.4 using HBSS supplemented with 10 mM Hepes (in the following referred to as HBSS+). Cells were washed with 1 ml prewarmed (37 °C) HBSS+, and the uptake was initiated by adding 400 μl of prewarmed HBSS+ containing the substrate. Uptake was allowed for exactly 2 min and afterward stopped by adding 2 ml ice-cold HBSS+. Cells were washed twice with 2 ml ice-cold HBSS+ and lysed with 80% acetonitrile supplemented with internal standard, 0.1 N NaOH/0.1% SDS, or radioimmunoprecipitation buffer for LC–MS/MS, liquid scintillation counting, or fluorescence spectroscopy detection, respectively. Intracellular substrate concentrations were measured as described in the following and were then normalized to the amount of total protein in the samples as measured using the bicinchoninic acid assay ([51]).
For LC–MS/MS quantification of intracellular substrate concentrations, the cell lysate was centrifuged at 16,000g for 15 min, and 350 μl of supernatant was evaporated to dryness under nitrogen flow at 40 °C. The sample was reconstituted with 200 μl 0.1% formic acid, and between 2 and 30 μl were injected into the LC–MS/MS system (Table S1).
An API4000 QTRAP tandem mass spectrometer with ESI interface (AB SCIEX) was used, coupled to a Shimadzu Nexera X2 UHPLC system with LC 30AD pumps and SiL 30AC autosampler (Shimadzu).
Intracellular concentrations of radioactively labeled substrates MPP^+ and TEA^+ were quantified using liquid scintillation counting. To this end, 400 μl cell lysate was transferred into a 20 ml scintillation vial, 9 ml Aquasafe 500 Plus liquid scintillator (both Zinsser Analytics) was added, and the sample was measured in the Scintillation Counter LS6500 (Beckman Coulter).
For both analyses, SPSS Statistics, version 28 (SPSS, Inc, IBM) was used.

[7] = substrate: NC[C@H](O)c1ccc(O)c(O)c1; test: cells, lysate or membranes; settings: other: HEK293 stably transfected, 2 min uptake, 37 °C, pH 7.4
[8] = substrate: NCCc1ccc(O)c(O)c1; test: cells, lysate or membranes; settings: other: HEK293 stably transfected, 2 min uptake, 37 °C, pH 7.4
[9] = substrate: C[N+](C)(C)CCO; test: cells, lysate or membranes; settings: other: HEK293 stably transfected, 2 min uptake, 37 °C, pH 7.4
[10] = substrate: CNC(=C[N+](=O)[O-])NCCSCc1ccc(CN(C)C)o1; test: cells, lysate or membranes; settings: other: HEK293 stably transfected, 2 min uptake, 37 °C, pH 7.4
[11] = substrate: CC(C)NCC(O)c1cc(O)cc(O)c1; test: cells, lysate or membranes; settings: other: HEK293 stably transfected, 2 min uptake, 37 °C, pH 7.4
[12] = substrate: [H]/N=C(/N)N/C(=N/[H])NCCc1ccccc1; test: cells, lysate or membranes; settings: other: HEK293 stably transfected, 2 min uptake, 37 °C, pH 7.4
[13] = substrate: O=C(O[C@H]1C[C@H]2CC[C@@H](C1)[N+]21CCCC1)C(O)(c1ccccc1)c1ccccc1; test: cells, lysate or membranes; settings: pH 7.4; 37.0 °C
[14] = substrate: C[N+]1(CC2CC2)CC[C@]23c4c5ccc(O)c4O[C@H]2C(=O)CC[C@@]3(O)[C@H]1C5; test: cells, lysate or membranes; settings: other: HEK293 stably transfected, 2 min uptake, 37 °C, pH 7.4
[15] = substrate: CC(C)(C)NCC(O)c1ccc(O)c(CO)c1; test: cells, lysate or membranes; settings: other: HEK293 stably transfected, 2 min uptake, 37 °C, pH 7.4
[16] = substrate: NCCc1c[nH]c2ccc(O)cc12; test: cells, lysate or membranes; settings: other: HEK293 stably transfected, 2 min uptake, 37 °C, pH 7.4
[17] = substrate: CC(C)(C)NCC(O)c1ccc(O)c(CO)n1; test: cells, lysate or membranes; settings: other: HEK293 stably transfected, 2 min uptake, 37 °C, pH 7.4
[18] = substrate: CC(C)(C)NCC(O)c1cc(O)cc(O)c1; test: cells, lysate or membranes; settings: other: HEK293 stably transfected, 2 min uptake, 37 °C, pH 7.4
[19] = substrate: NCCc1c[nH]cn1; test: cells, lysate or membranes; settings: other: HEK293 stably transfected, 2 min uptake, 37 °C, pH 7.4
[20] = substrate: COc1ccc(CC(C)NCC(O)c2ccc(O)c(NC=O)c2)cc1; test: cells, lysate or membranes; settings: other: HEK293 stably transfected, 2 min uptake, 37 °C, pH 7.4
[21] = substrate: CNS(=O)(=O)Cc1ccc2[nH]cc(CCN(C)C)c2c1; test: cells, lysate or membranes; settings: other: HEK293 stably transfected, 2 min uptake, 37 °C, pH 7.4
[22] = substrate: CC(CCc1ccc(O)cc1)NCC(O)c1ccc(O)cc1; test: cells, lysate or membranes; settings: other: HEK293 stably transfected, 2 min uptake, 37 °C, pH 7.4
[23] = substrate: CC(Cc1ccc(O)cc1)NCC(O)c1cc(O)cc(O)c1; test: cells, lysate or membranes; settings: other: HEK293 stably transfected, 2 min uptake, 37 °C, pH 7.4
[24] = substrate: CNC[C@H](O)c1ccc(O)c(O)c1; test: cells, lysate or membranes; settings: other: HEK293 stably transfected, 2 min uptake, 37 °C, pH 7.4
[25] = substrate: CC(NCCc1ccc(O)cc1)C(O)c1ccc(O)cc1; test: cells, lysate or membranes; settings: other: HEK293 stably transfected, 2 min uptake, 37 °C, pH 7.4
[26] = human versus mouse OCT1, stably transfected HEK293

T4 sequence (O08966 whole entry L32F): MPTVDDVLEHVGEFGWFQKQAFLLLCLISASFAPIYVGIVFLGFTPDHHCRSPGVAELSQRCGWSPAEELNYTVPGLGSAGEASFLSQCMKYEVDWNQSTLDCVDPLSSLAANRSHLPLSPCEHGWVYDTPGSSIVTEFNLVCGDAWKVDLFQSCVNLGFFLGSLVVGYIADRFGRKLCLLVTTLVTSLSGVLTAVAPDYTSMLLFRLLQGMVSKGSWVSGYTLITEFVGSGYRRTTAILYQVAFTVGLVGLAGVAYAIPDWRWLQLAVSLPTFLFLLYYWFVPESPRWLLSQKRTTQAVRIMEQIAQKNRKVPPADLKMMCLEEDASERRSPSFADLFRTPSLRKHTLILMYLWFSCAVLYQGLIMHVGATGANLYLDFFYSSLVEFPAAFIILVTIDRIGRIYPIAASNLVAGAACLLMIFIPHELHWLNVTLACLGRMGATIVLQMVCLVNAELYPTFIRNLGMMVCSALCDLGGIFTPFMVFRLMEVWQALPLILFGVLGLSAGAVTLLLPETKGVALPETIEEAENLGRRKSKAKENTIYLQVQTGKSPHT

Molecule: O=C(O[C@H]1C[C@H]2CC[C@@H](C1)[N+]21CCCC1)C(O)(c1ccccc1)c1ccccc1 [Trospium]
- decrease of trospium uptake by Phe32Leu in human OCT1 [1]: 79%
- clinically relevant (plasma) concentration [2]: 13.3 nM
- effect of Cys36Tyr on uptake of trospium [3]: did not affect
- decrease of trospium uptake compared with human wildtype [4]: 91%
- trospium uptake exceeding the uptake of the human ortholog ([5]; versus human wildtype OCT1): 2.8 fold
- increase of trospium uptake by Leu32Phe in mouse Oct1 ([5]; versus mouse wildtype): sevenfold
- difference in uptake between human and mouse OCT1 at low concentration ([6]; 100 nM, 2 min, stably transfected HEK293): did not see differences in uptake
- fold higher capacity (vmax) of human OCT1 than mouse Oct1 [6, 26]: 9.0 fold
- fold lower affinity (KM) of human OCT1 than mouse Oct1 (higher affinity of mouse Oct1) [6, 26]: 10.6 fold

B1: mouse Oct1 (Mus musculus) (protein)
chain: MPTVDDVLEHVGEFGWFQKQAFLLLCLISASLAPIYVGIVFLGFTPDHHCRSPGVAELSQRCGWSPAEELNYTVPGLGSAGEASFLSQCMKYEVDWNQSTLDCVDPLSSLAANRSHLPLSPCEHGWVYDTPGSSIVTEFNLVCGDAWKVDLFQSCVNLGFFLGSLVVGYIADRFGRKLCLLVTTLVTSLSGVLTAVAPDYTSMLLFRLLQGMVSKGSWVSGYTLITEFVGSGYRRTTAILYQVAFTVGLVGLAGVAYAIPDWRWLQLAVSLPTFLFLLYYWFVPESPRWLLSQKRTTQAVRIMEQIAQKNRKVPPADLKMMCLEEDASERRSPSFADLFRTPSLRKHTLILMYLWFSCAVLYQGLIMHVGATGANLYLDFFYSSLVEFPAAFIILVTIDRIGRIYPIAASNLVAGAACLLMIFIPHELHWLNVTLACLGRMGATIVLQMVCLVNAELYPTFIRNLGMMVCSALCDLGGIFTPFMVFRLMEVWQALPLILFGVLGLSAGAVTLLLPETKGVALPETIEEAENLGRRKSKAKENTIYLQVQTGKSPHT
- Km [7]: 409 ± 60.7 µM
- Vmax [7]: 0.00607 µmol/min/mg
- Vmax/Km [7]: 11.6 µL/min/mg
- Km [8]: 285 ± 3.25 µM
- Vmax [8]: 0.00171 µmol/min/mg
- Vmax/Km [8]: 6 µL/min/mg
- Km [9]: 1286 ± 308 µM
- Vmax [9]: 0.0166 ± 0.0059 µmol/min/mg
- Vmax/Km [9]: 13 µL/min/mg
- Km [10]: 84.4 ± 27.0 µM
- Vmax [10]: 0.0058 µmol/min/mg
- Vmax/Km [10]: 74.1 µL/min/mg
- Km [11]: 89.8 ± 9.34 µM
- Vmax [11]: 0.00424 µmol/min/mg
- Vmax/Km [11]: 47.6 µL/min/mg
- Km [12]: 7.53 ± 0.63 µM
- Km [13]: 1.81 ± 1.03 µM
- Vmax [13]: 0.000163 µmol/min/mg
- Vmax/Km [13]: 102 µL/min/mg
- Km [14]: 8.61 ± 3.12 µM
- Km [15]: 52.2 ± 7.27 µM
- Vmax [15]: 0.00197 µmol/min/mg
- Vmax/Km [15]: 38.2 µL/min/mg
- Km [16]: 257 ± 53.3 µM
- Vmax [16]: 0.0162 ± 0.00276 µmol/min/mg
- Vmax/Km [16]: 63.9 µL/min/mg
- Km [17]: 26.5 ± 12.5 µM
- Vmax [17]: 0.00185 µmol/min/mg
- Vmax/Km [17]: 76.3 µL/min/mg
- Km [18]: 60.4 ± 18.7 µM
- Vmax [18]: 0.00295 µmol/min/mg
- Vmax/Km [18]: 48.7 µL/min/mg
- Km [19]: 497 ± 136 µM
- Vmax [19]: 0.00596 µmol/min/mg
- Vmax/Km [19]: 11.9 µL/min/mg
- Km [20]: 9.81 ± 2.26 µM
- Km [21]: 65.7 ± 17.0 µM
- Vmax [21]: 0.00325 µmol/min/mg
- Vmax/Km [21]: 50.5 µL/min/mg
- Km [22]: 2.54 ± 0.83 µM
- Vmax [22]: 0.000481 µmol/min/mg
- Vmax/Km [22]: 207 µL/min/mg
- Km [23]: 6.90 ± 0.56 µM
- Km [24]: 242 ± 38.6 µM
- Vmax [24]: 0.00755 µmol/min/mg
- Vmax/Km [24]: 31.2 µL/min/mg
- Km [25]: 6.34 ± 0.89 µM
- Vmax [25]: 0.000737 µmol/min/mg
- Vmax/Km [25]: 116 µL/min/mg
